From patent US20200317779A1
Residue numbers refer to the chain shown, from its start.

B1: F01 (antibody, human IgG1, lambda, L234A L235A, V domains shown)
VH: EVQLVESGGGLVQPGGSLKLSCAASGFTFNTYAMNWVRQASGKGLEWVARIRSKYNNYATYYADSVKDRFTISRDDSKNTLYLQMNSLKTEDTAVYYCVRHGNFGNSYVSWFAYWGQGTLVTVSS
VL: QAVVTQEPSLTVSPGGTVTLTCRSSTGAVTTSNYANWFQQKPGQAPRTLIYGTNKRAPWTPARFSGSLLGGKAALTLSGAQPEDEAEYYCALWYSNLWVFGGGTKLTVLG
B2: G02 (antibody, human IgG1, lambda, L234A L235A, V domains shown)
VH: B1 VH with K78Q, N79S, L81A
VL: B1 VL with G71D
B3: F14 (antibody, human IgG1, lambda, L234A L235A, V domains shown)
VH: B1 VH
VL: B1 VL with F38V, T48G, G71D
B4: A09 (antibody, human IgG1, lambda, L234A L235A, V domains shown)
VH: B1 VH with A49G, L81A
VL: B1 VL with F38V
B5: F07 (antibody, human IgG1, lambda, L234A L235A, V domains shown)
VH: B1 VH
VL: B1 VL with T48G, Y51G
B6: F09 (antibody, human IgG1, lambda, L234A L235A, V domains shown)
VH: B1 VH
VL: B1 VL with F38V
B7: G12 (antibody, human IgG1, lambda, L234A L235A, V domains shown)
VH: B1 VH with K78Q, N79S, L81A
VL: B1 VL with F38V, Y51G, G71D
B8: G10 (antibody, human IgG1, lambda, L234A L235A, V domains shown)
VH: B1 VH with K78Q, N79S, L81A
VL: B1 VL with F38V, G71D
B9: A11 (antibody, human IgG1, lambda, L234A L235A, V domains shown)
VH: B1 VH with A49G, L81A
VL: B1 VL with F38V, Y51G
B10: A10 (antibody, human IgG1, lambda, L234A L235A, V domains shown)
VH: B1 VH with A49G, L81A
VL: B1 VL with F38V, G71D
B11: G11 (antibody, human IgG1, lambda, L234A L235A, V domains shown)
VH: B1 VH with K78Q, N79S, L81A
VL: B1 VL with F38V, Y51G
B12: F05 (antibody, human IgG1, lambda, L234A L235A, V domains shown)
VH: B1 VH
VL: B1 VL with T48G
B13: F03 (antibody, human IgG1, lambda, L234A L235A, V domains shown)
VH: B1 VH
VL: B1 VL with Y51G
B14: G08 (antibody, human IgG1, lambda, L234A L235A, V domains shown)
VH: B1 VH with K78Q, N79S, L81A
VL: B1 VL with T48G, Y51G, G71D
B15: F10 (antibody, human IgG1, lambda, L234A L235A, V domains shown)
VH: B1 VH
VL: B1 VL with F38V, G71D
B16: F06 (antibody, human IgG1, lambda, L234A L235A, V domains shown)
VH: B1 VH
VL: B1 VL with T48G, G71D
B17: G04 (antibody, human IgG1, lambda, L234A L235A, V domains shown)
VH: B1 VH with K78Q, N79S, L81A
VL: B1 VL with Y51G, G71D
B18: F12 (antibody, human IgG1, lambda, L234A L235A, V domains shown)
VH: B1 VH
VL: B1 VL with F38V, Y51G, G71D
B19: F02 (antibody, human IgG1, lambda, L234A L235A, V domains shown)
VH: B1 VH
VL: B1 VL with G71D
B20: F11 (antibody, human IgG1, lambda, L234A L235A, V domains shown)
VH: B1 VH
VL: B1 VL with F38V, Y51G
B21: G05 (antibody, human IgG1, lambda, L234A L235A, V domains shown)
VH: B1 VH with K78Q, N79S, L81A
VL: B1 VL with T48G
B22: F13 (antibody, human IgG1, lambda, L234A L235A, V domains shown)
VH: B1 VH
VL: B1 VL with F38V, T48G
B23: G03 (antibody, human IgG1, lambda, L234A L235A, V domains shown)
VH: B1 VH with K78Q, N79S, L81A
VL: B1 VL with Y51G
B24: F08 (antibody, human IgG1, lambda, L234A L235A, V domains shown)
VH: B1 VH
VL: B1 VL with T48G, Y51G, G71D
B25: G09 (antibody, human IgG1, lambda, L234A L235A, V domains shown)
VH: B1 VH with K78Q, N79S, L81A
VL: B1 VL with F38V
B26: G06 (antibody, human IgG1, lambda, L234A L235A, V domains shown)
VH: B1 VH with K78Q, N79S, L81A
VL: B1 VL with T48G, G71D
B27: G07 (antibody, human IgG1, lambda, L234A L235A, V domains shown)
VH: B1 VH with K78Q, N79S, L81A
VL: B1 VL with T48G, Y51G
B28: F04 (antibody, human IgG1, lambda, L234A L235A, V domains shown)
VH: B1 VH
VL: B1 VL with Y51G, G71D
B29: G01 (antibody, human IgG1, lambda, L234A L235A, V domains shown)
VH: B1 VH with K78Q, N79S, L81A
VL: B1 VL

Each binder was assayed against recombinant human CD3ε/δ heterodimer (human) (UniProt P07766) (assay: ELISA, coated CD3ε/δ).
recombinant human CD3ε/δ heterodimer (human), sequence (P07766 23-126, stated change not applied, chain 1 of 2): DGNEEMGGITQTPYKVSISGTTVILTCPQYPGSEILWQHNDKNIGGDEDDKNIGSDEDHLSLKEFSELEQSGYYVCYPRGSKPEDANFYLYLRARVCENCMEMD
recombinant human CD3ε/δ heterodimer (human), sequence (P04234 22-105, stated change not applied, chain 2 of 2, further chain): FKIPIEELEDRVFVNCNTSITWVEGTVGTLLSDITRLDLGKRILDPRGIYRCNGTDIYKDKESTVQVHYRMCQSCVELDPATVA

Binder	Absorbance (450 nm)
B1	0.118
B2	0.146
B3	0.114
B4	0.092
B5	0.133
B6	0.099
B7	0.085
B8	0.099
B9	0.122
B10	0.097
B11	0.104
B12	0.105
B13	0.128
B14	0.137
B15	0.118
B16	0.115
B17	0.129
B18	0.09
B19	0.093
B20	0.138
B21	0.109
B22	0.192
B23	0.098
B24	0.134
B25	0.106
B26	0.118
B27	0.118
B28	0.084
B29	0.113

These binders were tested against recombinant cynomolgus monkey CD3ε/δ heterodimer (cynomolgus monkey) (UniProt Q95LI5) (assay: ELISA, coated CD3ε/δ).
recombinant cynomolgus monkey CD3ε/δ heterodimer (cynomolgus monkey), sequence (Q95LI5 22-117, stated change not applied, chain 1 of 2): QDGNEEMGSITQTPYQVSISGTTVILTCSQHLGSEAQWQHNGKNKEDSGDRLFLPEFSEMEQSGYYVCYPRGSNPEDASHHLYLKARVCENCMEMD
recombinant cynomolgus monkey CD3ε/δ heterodimer (cynomolgus monkey), sequence (Q95LI8 22-105, stated change not applied, chain 2 of 2, further chain): as the sequence (P04234 22-105, stated change not applied, chain 2 of 2, further chain) above, with I5V, N15K, I20V, S32T, D33N, I34N, T64A, S74N, V83L counted along it

Binder	Absorbance (450 nm)
B1	0.086
B2	0.069
B3	0.1
B4	0.05
B5	0.163
B6	0.084
B7	0.065
B8	0.079
B9	0.105
B10	0.066
B11	0.08
B12	0.075
B13	0.101
B14	0.119
B15	0.091
B16	0.096
B17	0.063
B18	0.077
B19	0.076
B20	0.104
B21	0.072
B22	0.151
B23	0.088
B24	0.18
B25	0.079
B26	0.078
B27	0.316
B28	0.069
B29	0.096
